B1: μ121 (AP-1 medium subunit μ1, residues 121–423) (domain or fragment)
chain: GYPQTTDSKILQEYITQEGHKLETGAPRPPATVTNAVSWRSEGIKYRKNEVFLDVIEAVNLLVSANGNVLRSEIVGSIKMRVFLSGMPELRLGLNDKVLFDNTGRGKSKSVELEDVKFHQCVRLSRFENDRTISFIPPDGEFELMSYRLNTHVKPLIWIESVIEKHSHSRIEYMVKAKSQFKRRSTANNVEIHIPVPNDADSPKFKTTVGSVKWVPENSEIVWSVKSFPGGKEYLMRAHFGLPSVEAEDKEGKPPISVKFEIPYFTTSGIQVRYLKIIEKSGYQALPWVRYITQNGDYQLRTQ

Tests used:
Experiment in all cases: pull-down; partially purified recombinant proteins mixed and incubated overnight at 4°C, GSTrap columns, washed with 50 mM Tris pH 7.5, 150 mM NaCl, eluted with 10 mM reduced glutathione; Western blot with anti-His6 antibody, bands quantified with Image J, pulldown by GST-CD-Nef set to 100%
[1] = target: GST-MHC-I CD-Nef (human | HIV-1) (UniProt P03406)
[2] = target: GST-CD(Y320A)-NefLL/AA (human | HIV-1) (UniProt P03406)
[3] = target: GST-CD-Nef M20A,LL/AA (human | HIV-1) (UniProt P03406)
[4] = target: GST-CD-Nef E62-65A,LL/AA (human | HIV-1) (UniProt P03406)
[5] = target: GST-MHC-I CD-Nef LL/AA (human | HIV-1) (UniProt P03406)
[6] = target: GST-CD-Nef P78A,LL/AA (human | HIV-1) (UniProt P03406)

| Molecule | pulldown efficiency (% of the pulldown of wild-type μ1 by GST-CD-Nef) [1] | pulldown efficiency (% of the pulldown of μ1 by GST-CD-Nef) [2] | pulldown efficiency (% of the pulldown of μ1 by GST-CD-Nef) [3] | pulldown efficiency (% of the pulldown of μ1 by GST-CD-Nef) [4] | pulldown efficiency (% of the pulldown of μ1 by GST-CD-Nef) [5] | pulldown efficiency (% of the pulldown of μ1 by GST-CD-Nef) [6] |
| --- | --- | --- | --- | --- | --- | --- |
| truncated μ1 mutant F172A/D174S (domain or fragment) | 57% | – | – | – | – | – |
| truncated μ1 mutant V392A/L395A (domain or fragment) | 24% | – | – | – | – | – |
| B1 | – | 16% | 53% | 30% | 77% | 19% |
